One data set has as its system LOS4 ATPase. In words: Steady-state ATPase assay of LOS4-His. To be noted: for stimulation of LOS4 ATPase activity in the absence of InsP6: 1 μM LOS4-His, 2 mM ATP, 2 μM MBP-Gle1C or variant. The class given is biochemical, Arabidopsis thaliana. As for the experimental part: A steady-state ATPase assay was performed as described by Alcázar-Román et al. (Inositol hexakisphosphate and Gle1 activate the DEAD-box protein Dbp5 for nuclear mRNA export. Nat. Cell Biol. 8: 711-716, 2006) with slight modifications. The ATPase assay was performed with a LOS4-His protein in a 96-well plate using a buffer containing 20 mM HEPES (pH 7.5), 150 mM NaCl, 3 mM MgCl2, 1 mM DTT, 2 mM ATP, 6 mM phosphoenolpyruvate, 1.2 mM NADH, 1 mg/ml BSA and 2% (v/v) pyruvate kinase/lactate dihydrogenase (Sigma-Aldrich) in a total volume of 100 μl. Polyadenylic acid was added at 50 μg/ml or different concentrations as described above. Absorbance at 340 nm was measured using a VersaMax absorbance microplate reader (Molecular Devices), and the data were analyzed using SoftMax Pro software (Molecular Devices).
Gle1 and Gle1C (aa residues 244-611) were cloned into a pMAL C2X vector (New England Biolabs) for MBP fusion, LOS4 was cloned into a pET-29a vector for His fusion. MBP-Gle1 and MBP-Gle1C proteins were expressed in a BL21 (DE3) strain, and LOS4-His proteins were expressed in a Rosseta (DE3) strain of Escherichia coli. Cells were grown at 37° C. to an A600 of 0.4, shifted to 16° C., and induced by 0.25 mM IPTG for 16 hours. The MBP- and His-fusion proteins were purified following the manufacturer's introductions using MBP Excellose (Bioprogen) and His60 Ni Superflow™ resin (Clontech), respectively.

The target of data set [1] is 6x-histidine-fused LOS4 (LOS4-His) (Arabidopsis) (UniProt Q93ZG7).
Data set [2] has the same target. The source holds these as a separate data set.
Data set [3] has as its target T1, LOS4 RNA helicase activity (Arabidopsis thaliana, UniProt Q93ZG7).
T1 construct: LOS4 was cloned into a pET-29a vector for His fusion; made in house; host or cells: Escherichia coli Rosetta (DE3) for LOS4-His; BL21 (DE3) for MBP-Gle1
T1 sequence (Q93ZG7 1-496): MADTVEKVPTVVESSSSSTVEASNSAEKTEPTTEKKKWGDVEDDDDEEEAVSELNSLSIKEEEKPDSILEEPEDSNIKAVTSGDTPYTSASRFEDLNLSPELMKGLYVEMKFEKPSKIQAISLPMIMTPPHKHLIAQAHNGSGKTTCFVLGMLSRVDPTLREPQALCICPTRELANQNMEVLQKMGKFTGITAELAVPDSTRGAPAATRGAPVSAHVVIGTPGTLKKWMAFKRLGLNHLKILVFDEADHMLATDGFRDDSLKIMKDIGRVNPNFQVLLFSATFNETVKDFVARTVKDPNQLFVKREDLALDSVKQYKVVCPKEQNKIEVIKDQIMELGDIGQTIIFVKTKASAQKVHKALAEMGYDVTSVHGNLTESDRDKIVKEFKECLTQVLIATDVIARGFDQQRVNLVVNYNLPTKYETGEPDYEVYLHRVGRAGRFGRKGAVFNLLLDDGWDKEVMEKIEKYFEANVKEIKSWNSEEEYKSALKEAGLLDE
In words: In vitro nucleic acid-melting assay with hairpin-shaped molecular beacons. To be noted: in the presence of ATP; LOS4-His:MBP-Gle1 1:1, 1:2, 1:4 or LOS4-His only. The class given is biochemical. As for the experimental part:
A nucleic acid-melting assay was performed as described by Kim et al. (Cold shock domain proteins and glycine-rich RNA-binding proteins from Arabidopsis thaliana can promote the cold adaptation process in Escherichia coli. Nucleic Acids Res. 35: 506-516, 2007) using 78-nucleotide-long, 9-bp-containing, hairpin-shaped molecular beacons conjugated with a fluorophore (tetramethylrhodamine) and a quencher (Dabcyl). Spectrofluorometry was performed using a fluorescence spectrophotometer (Hitachi F-2000) at an excitation wavelength of 555 nm and an emission wavelength of 575 nm.

A further data set deals with T2, LOS4-His (Arabidopsis thaliana, UniProt Q93ZG7).
T2 construct: LOS4 was cloned into a pET-29a vector for His fusion; made in house; host or cells: Escherichia coli Rosetta (DE3) for LOS4-His; BL21 (DE3) for MBP-Gle1
T2 sequence (Q93ZG7 1-496): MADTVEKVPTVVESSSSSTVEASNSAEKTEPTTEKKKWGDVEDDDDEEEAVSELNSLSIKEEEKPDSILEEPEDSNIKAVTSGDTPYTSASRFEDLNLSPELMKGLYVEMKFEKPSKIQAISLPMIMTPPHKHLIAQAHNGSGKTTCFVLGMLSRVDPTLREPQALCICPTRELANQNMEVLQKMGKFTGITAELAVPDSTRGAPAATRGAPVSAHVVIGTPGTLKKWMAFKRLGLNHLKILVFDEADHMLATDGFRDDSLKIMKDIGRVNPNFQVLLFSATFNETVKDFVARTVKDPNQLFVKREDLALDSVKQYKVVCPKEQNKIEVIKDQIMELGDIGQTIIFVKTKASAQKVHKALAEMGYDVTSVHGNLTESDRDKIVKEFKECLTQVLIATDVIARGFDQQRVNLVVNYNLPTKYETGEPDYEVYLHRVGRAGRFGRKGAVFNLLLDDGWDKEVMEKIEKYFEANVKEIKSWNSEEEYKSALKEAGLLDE
In words: In vitro pull-down assay. The class given is binding. To be noted: Coomassie blue staining of eluted proteins. The method, then:
MBP and MBP-Gle1 proteins immobilized on MBP Excellose (Bioprogen) were incubated with LOS4-His proteins for 2 hours at room temperature. Similarly, LOS4-His proteins immobilized on a His60 Ni Superflow™ resin (Clontech) were incubated with MBP or MBP-Gle1 for 2 hours at room temperature. After extensive washing of the resins, the bound proteins were eluted with 2× SDS sample buffer, and the eluted proteins were visualized by Coomassie blue staining.

Turning to `O=S(=O)(O)OC1C(OS(=O)(=O)O)C(OS(=O)(=O)O)C(OS(=O)(=O)O)C(OS(=O)(=O)O)C1OS(=O)(=O)O` (centres unmarked) [InsP6 analog, reference compound], the “further stimulation of LOS4 ATPase activity” value with LOS4 ATPase (LOS4-His 1 μM, ATP 2 mM, RNA, MBP-Gle1 2 μM plus 10 μM InsP6 analog) is “did not do so”.

For “polyadenylic acid [RNA, reference compound]”, the “LOS4 ATPase activity” value in the data set with LOS4 ATPase (LOS4-His 1 μM, ATP 2 mM, RNA 50 μg/ml only) is listed as “moderately stimulated LOS4 ATPase activity”.

In the case of “MBP fusion protein of the carboxyl-terminal domain of Gle1 (MBP-Gle1C; amino acid residues 244-611)”, the apparent kcat of LOS4-His ATPase in data set [1] is 0.565 s⁻¹.

On to MBP-Gle1C (ID), for which the LOS4 ATPase activity in the absence of InsP6 (fold decrease) in data set [2] amounted to 2.

B1: MBP-Gle1C (IS1): MBP fusion of Arabidopsis Gle1C variant InsP6-Sensitive 1: mutation from A437 to K (protein)
chain: QEKARAEAQMLAKIRAEEEKKEVERKAAREVAEKEVADRKAAEQKLAEQKAVIESVTGSSATSNAQAGGNSIRAAESALILENHRLKKLEELETTNQSLKSRSNENFSSFEKHIGRVIRQISGTKDSVSGKINDIVKIFKDPRCPVSISIAAFAKKMVTTKEKPNPFACSYVIVYINSQFPQVMDILLAEFHKKCIYTVPKHIVNSQSAWDSDAYERLDSIMRLYGALVQTDIRVGNATNVHGIEHGWAWLARFLNKIPANRATATALNSFLQTAGFGLHQRYKSQFLKVVNVVREHFLQKLRAKKDTSDLLVIIAEITAYLDDRMYLKEPEGRAMKTTSTLSSELTAELNQPNYNQNYQRNDYRNYY
For the molecule B1, the “stimulation of LOS4 ATPase activity in the absence of InsP6” value (“stimulation … of InsP6” below) in the data set on LOS4 ATPase (RNA, no InsP6) is recorded as “activated LOS4 ATPase activity to similar degrees”. In addition, in the data set with LOS4 ATPase (with RNA, InsP6 0-100 μM), the “InsP6 concentration at which LOS4-stimulating activity increases above basal” value is reported as 100 nM and the “InsP6 concentration giving maximum LOS4-stimulating activity” value is around 1 µM.

B2: MBP-Gle1C (IS2): MBP fusion of Arabidopsis Gle1C variant InsP6-Sensitive 2: double mutations from E433 to K and from A437 to K (protein)
chain: QEKARAEAQMLAKIRAEEEKKEVERKAAREVAEKEVADRKAAEQKLAEQKAVIESVTGSSATSNAQAGGNSIRAAESALILENHRLKKLEELETTNQSLKSRSNENFSSFEKHIGRVIRQISGTKDSVSGKINDIVKIFKDPRCPVSISIAAFAKKMVTTKEKPNPFACSYVIVYINSQFPQVMDILLAKFHKKCIYTVPKHIVNSQSAWDSDAYERLDSIMRLYGALVQTDIRVGNATNVHGIEHGWAWLARFLNKIPANRATATALNSFLQTAGFGLHQRYKSQFLKVVNVVREHFLQKLRAKKDTSDLLVIIAEITAYLDDRMYLKEPEGRAMKTTSTLSSELTAELNQPNYNQNYQRNDYRNYY
Regarding B2, in the data set on LOS4 ATPase (RNA, no InsP6), the “stimulation … of InsP6” value is recorded as “reduced abilities to stimulate LOS4”. In addition, in the data set with LOS4 ATPase (with RNA, InsP6 0-100 μM), the “InsP6 concentration at which LOS4-stimulating activity increases above basal” value is 1 nM and the “InsP6 concentration giving full stimulation of LOS4 ATPase activity” value is on record as 100 nM.

B3: MBP-Gle1C (ID): MBP fusion of Arabidopsis Gle1C variant InsP6-Dead: mutation from K436 to A (protein)
chain: QEKARAEAQMLAKIRAEEEKKEVERKAAREVAEKEVADRKAAEQKLAEQKAVIESVTGSSATSNAQAGGNSIRAAESALILENHRLKKLEELETTNQSLKSRSNENFSSFEKHIGRVIRQISGTKDSVSGKINDIVKIFKDPRCPVSISIAAFAKKMVTTKEKPNPFACSYVIVYINSQFPQVMDILLAEFHAACIYTVPKHIVNSQSAWDSDAYERLDSIMRLYGALVQTDIRVGNATNVHGIEHGWAWLARFLNKIPANRATATALNSFLQTAGFGLHQRYKSQFLKVVNVVREHFLQKLRAKKDTSDLLVIIAEITAYLDDRMYLKEPEGRAMKTTSTLSSELTAELNQPNYNQNYQRNDYRNYY
Turning to B3, the “stimulation … of InsP6” value in the data set on LOS4 ATPase (RNA, no InsP6) is given as “reduced abilities to stimulate LOS4”. In addition, the “decrease in LOS4-stimulating activity in the absence of InsP6” value in the data set with LOS4 ATPase (K436A mutation vs MBP-Gle1C, no InsP6) is given as above 2 fold.

B4: LOS4-His: 6×-histidine-fused LOS4, Arabidopsis DEAD-box ATPase/RNA helicase, homolog of yeast Dbp5 (protein)
chain: MADTVEKVPTVVESSSSSTVEASNSAEKTEPTTEKKKWGDVEDDDDEEEAVSELNSLSIKEEEKPDSILEEPEDSNIKAVTSGDTPYTSASRFEDLNLSPELMKGLYVEMKFEKPSKIQAISLPMIMTPPHKHLIAQAHNGSGKTTCFVLGMLSRVDPTLREPQALCICPTRELANQNMEVLQKMGKFTGITAELAVPDSTRGAPAATRGAPVSAHVVIGTPGTLKKWMAFKRLGLNHLKILVFDEADHMLATDGFRDDSLKIMKDIGRVNPNFQVLLFSATFNETVKDFVARTVKDPNQLFVKREDLALDSVKQYKVVCPKEQNKIEVIKDQIMELGDIGQTIIFVKTKASAQKVHKALAEMGYDVTSVHGNLTESDRDKIVKEFKECLTQVLIATDVIARGFDQQRVNLVVNYNLPTKYETGEPDYEVYLHRVGRAGRFGRKGAVFNLLLDDGWDKEVMEKIEKYFEANVKEIKSWNSEEEYKSALKEAGLLDE
Turning to B4, the “beacon fluorescence (LOS4 RNA helicase activity)” value in data set [3] is reported as “did not increase the fluorescence of the beacons”. Further, in the data set with LOS4 ATPase (LOS4-His (1 μM) alone, 0-2 mM ATP), the “apparent kcat of LOS4-His” value amounted to 0.267 s⁻¹.

B5: MBP-Gle1: maltose-binding protein (MBP)-fused full-length Arabidopsis Gle1 (protein)
chain: MGIVLEPPCPKSVDGISIDPEPNWNFESLVAEIASVEKKLNGFSMYPQPITNTTLRMGRRGGGFVMHVSEDEMESDEGEESDDEEEEEDHSQICTAGKRFACDELYLSDESDEEFDHEPEYMMNKLGLAESALYEVINDHQTEIKDDIRNQVSVVETEIMNEIETSLSAIARVEKYSETRKEVERKLDLQYQRKVAEALDTHLTAVQREHKIKSQIEERKIRSEEAQEEARRKERAHQEEKIRQEKARAEAQMLAKIRAEEEKKEVERKAAREVAEKEVADRKAAEQKLAEQKAVIESVTGSSATSNAQAGGNSIRAAESALILENHRLKKLEELETTNQSLKSRSNENFSSFEKHIGRVIRQISGTKDSVSGKINDIVKIFKDPRCPVSISIAAFAKKMVTTKEKPNPFACSYVIVYINSQFPQVMDILLAEFHKACIYTVPKHIVNSQSAWDSDAYERLDSIMRLYGALVQTDIRVGNATNVHGIEHGWAWLARFLNKIPANRATATALNSFLQTAGFGLHQRYKSQFLKVVNVVREHFLQKLRAKKDTSDLLVIIAEITAYLDDRMYLKEPEGRAMKTTSTLSSELTAELNQPNYNQNYQRNDYRNYY
On to B5, for which, in data set [3], the “beacon fluorescence (LOS4 RNA helicase activity)” value is “significant increase in fluorescence in a concentration-dependent manner”. In the data set with LOS4-His, the “pull-down by nickel resin-bound LOS4-His” value is “could pull down MBP-Gle1”. Further, the “induction of LOS4 ATPase activity” value with LOS4 ATPase (LOS4-His 1 μM, ATP 2 mM, RNA 50 μg/ml and MBP-Gle1 (full length) 2 μM) is listed as “threefold”.

These data come from patent US10793871B2, “Nucleic acid molecule encoding glei protein variant with increased phytic acid sensitivity and use thereof” (University-Industry Foundation, Yonsei University, priority 2015, dated 2020).
